Measurements taken from patent US20220040266A1.

Molecular target: growth hormone receptor (GHR) on pancreatic cancer cells (human) (UniProt P10912)
Assay: cell-based or functional assay

UniProt P10912, sequence (P10912 19-638): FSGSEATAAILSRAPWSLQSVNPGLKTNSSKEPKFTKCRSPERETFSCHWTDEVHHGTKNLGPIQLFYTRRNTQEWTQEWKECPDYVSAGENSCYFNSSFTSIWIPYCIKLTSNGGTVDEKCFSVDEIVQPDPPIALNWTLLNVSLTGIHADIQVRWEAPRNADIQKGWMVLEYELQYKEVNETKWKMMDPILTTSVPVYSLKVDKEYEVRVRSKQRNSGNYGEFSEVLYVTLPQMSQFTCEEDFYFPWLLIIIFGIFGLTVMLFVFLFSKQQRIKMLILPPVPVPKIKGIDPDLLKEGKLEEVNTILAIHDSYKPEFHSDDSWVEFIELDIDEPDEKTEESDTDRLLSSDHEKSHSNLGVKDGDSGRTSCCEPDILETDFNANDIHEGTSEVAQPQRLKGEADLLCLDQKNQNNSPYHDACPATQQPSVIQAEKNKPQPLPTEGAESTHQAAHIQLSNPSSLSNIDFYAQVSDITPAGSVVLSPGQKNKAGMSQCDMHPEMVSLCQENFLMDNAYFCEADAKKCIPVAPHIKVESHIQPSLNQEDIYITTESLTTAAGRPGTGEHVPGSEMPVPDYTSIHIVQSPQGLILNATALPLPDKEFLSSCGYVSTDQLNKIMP

Row | drug efflux rate (DiOC2 dye), pancreatic cancer cells, 120 minutes | percentage of drug retention after 120 minutes, pancreatic cancer cells | Substance
1 | 2 fold | 83% | Compound G (hGHR antagonist hGH-G120K having T142 and H151 changed to cysteine and having both added cysteines conjugated with dPEG-A) (from UniProt P01241 27-217) (ligand)
2 | 2 fold | 83% | pegvisomant (SOMAVERT) (ligand)
